# The DeepSol protein solubility set
# Assay: soluble on expression in E. coli; label from the status in PepcDB or PDB records
row,Sequence,soluble on expression in E. coli
1,GRDFRFSISPNFTWVKNAVEKLANGATEEINNNRIVGQPIGIIYGYETDGLFVDQAEIDAAPEQLVSKSGLKPGYVKYKDISGPDGVPDGKVDAQYDRTVLGSTTPKFYYGLNLSASYKGFDFSALLQGLGGHKRLIGSYMAYAFYNGGQIQRWQAESCWKEENPDKWAEYPRLETLNMNDTNLQTSDYWVRNASFLRVKNIQIGYTFPKAWTKKIGLENVRVYVSGQNLFSFNSFYKGWDPENEIGTGDSPSYYPVNSIYSFGFNFKF,not soluble
2,GSASPTPPYLKWAESLHSLLDDQDGISLFRTFLKQEGCADLLDFWFACTGFRKLEPCDSNEEKRLKLARAIYRKYILDNNGIVSRQTKPATKSFIKGCIMKQLIDPAMFDQAQTEIQATMEENTYPSFLKSDIYLEYTRTGSESPKV,soluble
3,GSCASCPNNCENGLCTNSCDFEDLLSNCESLKTSAGCKHELLKTKCQATCLCEDKIH,soluble
4,GSDEKRLHFGNGHLKLPGLRTYVDPHTYEDPTQTVHEFAKELDATNISIDKVVGAGEFGEVCSGRLKLPSKKEISVAIKTLKVGYTEKQRRDFLGEASIMGQFDHPNIIRLEGVVTKSKPVMIVTEYMENGSLDSFLRKHDAQFTVIQLVGMLRGIASGMKYLSDMGYVHRDLAARNILINSNLVCKVSDFGLSRVLEDDPEAAYTTRGGKIPIRWTSPEAIAYRKFTSASDVWSYGIVLWEVMSYGERPYWEMSNQDVIKAVDEGYRLPPPMDCPAALYQLMLDCWQKDRNNRPKFEQIVSILDKLIRNPGSLKIITSAAARPSNLLLDQSNVDITTFRTTGDWLNGVWTAHCKEIFTGVEYSSCDTIAKIS,soluble
5,GSEAWMNFYLEEFNLSIPDSGPYGITSSEDGKVWFTQHKANKISSLDQSGRIKEFEVPTPDAKVMCLIVSSLGDIWFTENGANKIGKLSKKGGFTEYPLPQPDSGPYGITEGLNGDIWFTQLNGDRIGKLTADGTIYEYDLPNKGSYPAFITLGSDNALWFTENQNNSIGRITNTGKLEEYPLPTNAAAPVGITSGNDGALWFVEIMGNKIGRITTTGEISEYDIPTPNARPHAITAGKNSEIWFTEWGANQIGRITNDNTIQEYQLQTENAEPHGITFGKDGSVWFALKCKIGKLNLNE,soluble
6,GSEVYKKAPPYPEQVVSASGKVLMTKDDILAGQSAWQTTGGMEVGSILGHGAYQAPDWTADWLHRELVAWLDLTAQQTYGKKFDEVSPEEQAVLKTRLADEYRNQSRVKEDGSVVISDTRVKAIESILPYYHGVYSDDPKFQTTREHFAMKNNTLPSQEAREKLFNFFFWTSWSASTNRPDENFTYTNNWPHEPLINNVPTTEN,not soluble
7,GSGAVTAGAAPRILKHQVVRAELDRMLDGMRIGDPFPAEREIAEQFEVARETVRQALRELLIDGRVERRGRTTVVARPKIRQPLGMGSYTEAAKAQGLSAGRILVAWSDLTADEVLAGVLGVDVGAPVLQLERVLTTDGVRVGLETTKLPAQRYPGLRETFDHEASLYAEIRSRGIAFTRTVDTIDTALPDAREAALLGADARTPMFLLNRVSYDQDDVAIEQRRSLYRGDRMTFTAVMHAKNSAIVS,soluble
8,GSGMKETAAAKFGERQHMDSPDLGTDDDDKAMACSAGPSGFFTRLGRLIKEKAKSDVEKVFSGFSKTRENLAVIDELLLFWNLAETDRVLDELEEALLVSDFGPKITVRIVERLREDIMSGKLKSGSEIKDALKESVLEMLAKKNSKTELQLGFRKPAVIMIVGVNGGGKTTSLGKLAHRLKNEGTKVLMAAGDTFRAAASDQLEIWAERTGCEIVVAEGDKAKAATVLSKAVKRGKEEGYDVVLCDTSGRLHTNYSLMEELIACKKAVGKIVSGAPNEILLVLDGNTGLNMLPQAREFNEVVGITGLILTKLDGSARGGCVVSVVEELGIPVKFIGVGEAVEDLQPFDPEAFVNAIFS,soluble
9,GSHEHPEFLKAGKEPGLQIWRVEKFDLVPVPTNLYGDFFTGDAYVILKTVQLRNGNLQYDLHYWLGNECSQDESGAAAIFTVQLDDYLNGRAVQHREVQGFESATFLGYFKSGLKYKKGGVASGFKHVETQEKNPLPSKETIEQEKQ,soluble
10,GSHMDKIKLLKAAFLQYCRKDLGHAQMVVDELFSSHSDLDSDSELDRAVTQISVDLMDDYPASDPRWAESVPEEAPGFSNTSLIILHQLEDKMKAHSFLMDFIHQVGLFGRLGSFPVRGTPMATRLLLCEHAEKLSAAIVLKNHHSRLSDLVNTAILIALNKREYEIPSNLTPADVFFREVSQVDTICECLLEHEEQVLRDAPMDSIEWAEVVINVNNILKDMLQAASHYRQNRNSLYRREESLEKEPEYVPWTATSGPGGIRTVIIRQHEIVLKVAYPQADSNLRNIVTEQLVALIDCFLDGYVSQLKSVDKSSNRERYDNLEMEYLQKRSDLLSPLLSLGQYLWAASLAEKYCDFDILVQMCEQTDNQSRLQRYMTQFADQNFSDFLFRWYLEKGKRGKLLSQPISQHGQLANFLQAHEHLSWLHEINSQELEKAHATLLGLANMETRYFAKKKTLLGLSKLAALASDFSEDMLQEKIEEMAEQERFLLHQETLPEQLLAEKQLNLSAMPVLTAPQLIGLYICEENRRANEYDFKKALDLLEYIDEEEDININDLKLEILCKALQRDNWSSSDGKDDPIEVSKDSIFVKILQKLLKDGIQLSEYLPEVKDLLQADQLGSLKSNPYFEFVLKANYEYYVQGQI,soluble
11,GSHMEDSTTNITKKQKWTVEESEWVKAGVQKYGEGNWAAISKNYPFVNRTAVMIKDRWRTMKRLGMN,soluble
12,GSHMKETKKAGPIELPEELEAQRQRHNDPRRPPWPLLHQRVVLLREGKGAPEDIALMWEQTKHYYPADWLIPLELTQVLKYSSGKYLQTYVADPDEMRKEVLMQLLNVKYGRVSDPNGGRVNKDVEEIISMAVDDLENMDLNPAADAVLIPTHT,soluble
13,GSHMLHWGPKYWRSLHLYAIFFSDAPSWKEKYEAIQWILNFIESLPCTRCQHHAFSYLTKNPLTLNNSEDFQYWTFAFHNNVNNRLNKKIISWSEYKNIYEQSILK,soluble
14,GSHMQQWVDCEFTGRDFRDEDLSRLHTERAMFSECDFSGVNLAESQHRGSAFRNCTFERTTLWHSTFAQCSMLGSVFVACRLRPLTLDDVDFTLAVLGGNDLRGLNLTGCRLRETSLVDTDLRKCVLRGADLSGARTTGARLDDADLRGATVDPVLWRTASLVGARVDVDQAVAFAAAHGLCLAGG,soluble
15,GSHMSGEDAEVRAVSEDVSNGSSGSPSPGDTLPWNLGKTQRSRRSGGGAGSNGSVLDPAERAVIRIADERDRVQKKTFTKWVNKHLIKAQRHISDLYEDLRDGHNLISLLEVLSGDSLPREKGRMRFHKLQNVQIALDYLRHRQVKLVNIRNDDIADGNPKLTLGLIWTIILHFQISDIQVSGQSEDMTAKEKLLLWSQRMVEGYQGLRCDNFTSSWRDGRLFNAIIHRHKPLLIDMNKVYRQTNLENLDQAFSVAERDLGVTRLLDPEDVDVPQPDEKSIITYVSSLYDAMPRVP,soluble
16,GSHMSYADSSRNAVLTNGGRTLRAECRNADGNWVTSELDLDTIIGNNDGHFQWGGQNFTETAEDIRFHPKEGAAEQPILRARLRDCNGEFHDRDVNLNRIQNVNGRLVFQ,soluble
17,GSHMTEAEYLANYDPKAFKAQLLTVDAVLFTYHDQQLKVLLVQRSNHPFLGLWGLPGGFIDETCDESLEQTVLRKLAEKTAVVPPYIEQLCTVGNNSRDARGWSVTVCYTALMSYQACQIQIASVSDVKWWPLADVLQMPLAFDHLQLIEQARERLTQKALYSLVPGFALSEPFTLPELQHVHEVLLGKPIQGKSFRRRVEQADLLIDTGLKRTERGRPANLYCLKPDTASYRFLRNLEC,soluble
18,GSHMTNVTGDYTDCTPLLGDRAALDSFYEEHGYLFLRNVLDRDLVKTVAEQMREGLVALGAADPHATLEELTIDSFESVDEVAMHDYVKYDAFWNNPSTIKVFEQVFGEPVFVFLSTTIRYYPSQAGSEEPSFHYLTPFHQDGFYIGPNQDFRTFWIPLIRTTRESGGVALADGSHRRGKRDHVLNESFRRFGHPVRGIPPTEVSEDEHLLHSPMEPGDILLFHAHMCHKSIPNLSKDPRLMRMSMDTRVQPAKSHRGFNAMTPWTESAKDASKGIMAKITGTPTDVE,soluble
